Target: Hoc^-Soc^- T4 phage capsid (bacteriophage T4) (UniProt P19896)
Test: co-sedimentation

UniProt P19896, sequence (P19896 whole entry, looked up): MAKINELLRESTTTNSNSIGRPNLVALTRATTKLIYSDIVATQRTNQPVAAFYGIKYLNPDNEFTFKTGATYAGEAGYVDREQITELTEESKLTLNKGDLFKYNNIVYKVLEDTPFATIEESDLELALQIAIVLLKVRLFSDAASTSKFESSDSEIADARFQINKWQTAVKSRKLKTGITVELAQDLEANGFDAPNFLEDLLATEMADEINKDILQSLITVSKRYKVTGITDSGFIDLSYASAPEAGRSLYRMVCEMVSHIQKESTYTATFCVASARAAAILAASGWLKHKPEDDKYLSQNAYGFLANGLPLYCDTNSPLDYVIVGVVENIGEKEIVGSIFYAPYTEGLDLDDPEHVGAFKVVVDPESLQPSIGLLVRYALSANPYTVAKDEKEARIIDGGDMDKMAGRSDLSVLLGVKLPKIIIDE

“Soc-3M2e fusion protein (RB69 Soc with three tandem copies of M2e from human, swine and avian influe” was tested, and the Kd was 305 nM.

— paper PMC8546227
